Measured values as given in PMC12930632, “Free fatty acid receptor 2 allosterism is defined by cellular context” (Cell Communication and Signaling : CCS, 2026).
Read-outs that look alike come from different tables or passages of the source. Each block holds one compound with its values, some of them ahead of it.

Assays:
[1] = target: T1, free fatty acid receptor 2 (FFA2R; GPR43), WT (human) (UniProt O15552)
T1 sequence: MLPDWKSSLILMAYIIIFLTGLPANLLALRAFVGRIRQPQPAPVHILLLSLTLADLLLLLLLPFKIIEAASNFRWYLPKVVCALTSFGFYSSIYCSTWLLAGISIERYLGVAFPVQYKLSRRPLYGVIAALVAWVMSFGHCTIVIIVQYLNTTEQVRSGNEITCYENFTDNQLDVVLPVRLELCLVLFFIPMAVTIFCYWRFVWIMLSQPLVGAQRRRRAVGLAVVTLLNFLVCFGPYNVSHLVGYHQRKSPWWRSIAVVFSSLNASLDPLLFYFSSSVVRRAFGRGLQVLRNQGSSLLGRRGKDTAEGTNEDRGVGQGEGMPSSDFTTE

[2] = target: T1, free fatty acid receptor 2 (FFA2R; GPR43), WT (human); remark: listed apart in the source
[3] = target: T1, free fatty acid receptor 2 (FFA2R; GPR43), WT (human); remark: listed apart in the source
FFA2R (GPR43) = target: T2, FFA2R (GPR43) (Homo sapiens, UniProt O15552); assay: ebBRET effector membrane translocation assay (Rap1GAP-RlucII / rGFP-CAAX), Galpha-i1 activation; assay type: cell-based
T2 construct: gene FFAR2; full-length WT receptor, transiently transfected in HEK293T cells together with a defined Galpha subunit, Rap1GAP-RlucII and rGFP-CAAX; plasmid from cDNA.org
T2 sequence (O15552 1-330): T1 sequence
Text: ebBRET effector membrane translocation assay (Rap1GAP-RlucII / rGFP-CAAX), Galpha-i1 activation on FFA2R (GPR43)

Sequence of β-arrestin2-RlucII (P32121 whole entry): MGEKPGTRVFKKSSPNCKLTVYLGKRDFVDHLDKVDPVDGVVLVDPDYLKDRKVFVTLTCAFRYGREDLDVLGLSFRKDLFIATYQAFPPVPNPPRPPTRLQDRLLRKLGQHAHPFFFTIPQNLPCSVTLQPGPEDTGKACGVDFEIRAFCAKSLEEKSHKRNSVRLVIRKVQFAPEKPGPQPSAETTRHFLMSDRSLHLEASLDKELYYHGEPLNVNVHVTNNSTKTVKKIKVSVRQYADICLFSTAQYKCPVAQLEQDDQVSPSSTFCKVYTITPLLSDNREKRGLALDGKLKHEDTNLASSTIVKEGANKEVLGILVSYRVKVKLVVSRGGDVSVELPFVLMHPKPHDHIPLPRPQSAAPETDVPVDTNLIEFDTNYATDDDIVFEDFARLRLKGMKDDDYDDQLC
Sequence of β-arrestin1-RlucII (P49407 whole entry): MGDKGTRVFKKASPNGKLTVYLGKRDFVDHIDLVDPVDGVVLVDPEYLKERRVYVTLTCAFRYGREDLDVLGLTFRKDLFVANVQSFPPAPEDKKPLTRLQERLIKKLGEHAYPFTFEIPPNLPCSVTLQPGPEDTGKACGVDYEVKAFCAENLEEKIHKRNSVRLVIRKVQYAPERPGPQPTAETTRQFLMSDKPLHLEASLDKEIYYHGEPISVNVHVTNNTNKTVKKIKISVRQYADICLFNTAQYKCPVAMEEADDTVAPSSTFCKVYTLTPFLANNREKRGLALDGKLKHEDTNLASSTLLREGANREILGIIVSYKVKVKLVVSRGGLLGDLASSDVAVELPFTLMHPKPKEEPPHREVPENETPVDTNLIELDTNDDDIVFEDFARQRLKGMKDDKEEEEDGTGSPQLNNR

- ebBRET (EMTA) max response, p63RhoGEF-RlucII + rGFP-CAAX, HEK293T; propionate series after AZ1729 (1 µM, 5 min), vehicle and modulator-alone signals subtracted [1]: 1.36 ∆BRET^2
- ebBRET (EMTA) max response, p63RhoGEF-RlucII + rGFP-CAAX, HEK293T; propionate series after Cmp58 (1 µM, 5 min), vehicle and modulator-alone signals subtracted [1]: 1.41 ∆BRET^2
- ebBRET (EMTA) max response, p63RhoGEF-RlucII + rGFP-CAAX, HEK293T; propionate series up to 1 mM [2]: 1.82 ∆BRET^2
- ebBRET (EMTA) max response, p63RhoGEF-RlucII + rGFP-CAAX, HEK293T; Cmp58 series, alone [3]: 0.33 ∆BRET^2
Compound: Gα11 (from UniProt P29992 1-359) (natural protein)

- ebBRET (EMTA) max response, Rap1GAP-RlucII + rGFP-CAAX, HEK293T; propionate series after AZ1729 (1 µM, 5 min), vehicle and modulator-alone signals subtracted [1]: 0.481 ∆BRET^2
- ebBRET (EMTA) max response, Rap1GAP-RlucII + rGFP-CAAX, HEK293T; propionate series after Cmp58 (1 µM, 5 min), vehicle and modulator-alone signals subtracted [1]: 0.74 ∆BRET^2
- ebBRET (EMTA) max response, Rap1GAP-RlucII + rGFP-CAAX, HEK293T; propionate series up to 1 mM [2]: 0.865 ∆BRET^2
- ebBRET (EMTA) max response, Rap1GAP-RlucII + rGFP-CAAX, HEK293T; AZ1729 series, alone [3]: 0.664 ∆BRET^2
- ebBRET (EMTA) max response, Rap1GAP-RlucII + rGFP-CAAX, HEK293T; Cmp58 + AZ1729 series, no propionate [3]: 0.59 ∆BRET^2
- ebBRET (EMTA) max response, Rap1GAP-RlucII + rGFP-CAAX, HEK293T; Cmp58 series, alone [3]: 0.567 ∆BRET^2
Compound: Gαi2 (from UniProt P04899 1-355) (natural protein)

- ebBRET max response, β-arrestin1-RlucII + rGFP-CAAX (with or without GRK2), HEK293T; propionate series up to 1 mM [2]: 0.23 ∆BRET^2
- ebBRET max response, β-arrestin1-RlucII + rGFP-CAAX (with or without GRK2), HEK293T; AZ1729 series, alone [3]: 0.166 ∆BRET^2
- ebBRET max response, β-arrestin1-RlucII + rGFP-CAAX (with or without GRK2), HEK293T; Cmp58 series, alone [3]: 0.0827 ∆BRET^2
Compound: β-arrestin1-RlucII (from UniProt P49407 1-418) (natural protein)

- ebBRET max response, β-arrestin2-RlucII + rGFP-CAAX (with or without GRK2), HEK293T; propionate series after AZ1729 (1 µM, 5 min), vehicle and modulator-alone signals subtracted [1]: 0.775 ∆BRET^2
- ebBRET max response, β-arrestin2-RlucII + rGFP-CAAX (with or without GRK2), HEK293T; propionate series after Cmp58 (1 µM, 5 min), vehicle and modulator-alone signals subtracted [1]: 0.774 ∆BRET^2
- ebBRET max response, β-arrestin2-RlucII + rGFP-CAAX (with or without GRK2), HEK293T; propionate series up to 1 mM [2]: 0.799 ∆BRET^2
Compound: β-arrestin2-RlucII (from UniProt P32121 1-409) (natural protein)

- ebBRET (EMTA) max response, p63RhoGEF-RlucII + rGFP-CAAX, HEK293T; propionate series after AZ1729 (a lower concentration than 1 µM, not given), vehicle and modulator-alone signals subtracted [1]: 0.533 ∆BRET^2
- ebBRET (EMTA) max response, p63RhoGEF-RlucII + rGFP-CAAX, HEK293T; propionate series after Cmp58 (a lower concentration than 1 µM, not given), vehicle and modulator-alone signals subtracted [1]: 0.503 ∆BRET^2
- ebBRET (EMTA) max response, p63RhoGEF-RlucII + rGFP-CAAX, HEK293T; propionate series up to 1 mM [2]: 0.68 ∆BRET^2
- ebBRET (EMTA) max response, p63RhoGEF-RlucII + rGFP-CAAX, HEK293T; AZ1729 series, alone [3]: 0.74 ∆BRET^2
- ebBRET (EMTA) max response, p63RhoGEF-RlucII + rGFP-CAAX, HEK293T; Cmp58 + AZ1729 series, no propionate [3]: 0.43 ∆BRET^2
- ebBRET (EMTA) max response, p63RhoGEF-RlucII + rGFP-CAAX, HEK293T; Cmp58 series, alone [3]: 0.588 ∆BRET^2
Compound: Gα15 (from UniProt P30679 1-374) (natural protein)

More lines, now with the values behind:

Compound: Gαi3 (from UniProt P08754 1-354) (natural protein)
- ebBRET (EMTA) max response, Rap1GAP-RlucII + rGFP-CAAX, HEK293T; propionate series after AZ1729 (1 µM, 5 min), vehicle and modulator-alone signals subtracted [1]: 0.533 ∆BRET^2
- ebBRET (EMTA) max response, Rap1GAP-RlucII + rGFP-CAAX, HEK293T; propionate series after Cmp58 (1 µM, 5 min), vehicle and modulator-alone signals subtracted [1]: 0.485 ∆BRET^2
- ebBRET (EMTA) max response, Rap1GAP-RlucII + rGFP-CAAX, HEK293T; propionate series up to 1 mM [2]: 0.859 ∆BRET^2
- ebBRET (EMTA) max response, Rap1GAP-RlucII + rGFP-CAAX, HEK293T; AZ1729 series, alone [3]: 0.553 ∆BRET^2
- ebBRET (EMTA) max response, Rap1GAP-RlucII + rGFP-CAAX, HEK293T; Cmp58 + AZ1729 series, no propionate [3]: 0.485 ∆BRET^2
- ebBRET (EMTA) max response, Rap1GAP-RlucII + rGFP-CAAX, HEK293T; Cmp58 series, alone [3]: 0.574 ∆BRET^2

Compound: Gα14 (from UniProt O95837 1-355) (natural protein)
- ebBRET (EMTA) max response, p63RhoGEF-RlucII + rGFP-CAAX, HEK293T; propionate series up to 1 mM [2]: 0.677 ∆BRET^2
- ebBRET (EMTA) max response, p63RhoGEF-RlucII + rGFP-CAAX, HEK293T; AZ1729 series, alone [3]: 0.614 ∆BRET^2
- ebBRET (EMTA) max response, p63RhoGEF-RlucII + rGFP-CAAX, HEK293T; Cmp58 series, alone [3]: 0.195 ∆BRET^2

Compound: Gα13 (from UniProt Q14344 1-377) (natural protein)
- ebBRET (EMTA) max response, PDZ-RhoGEF-RlucII + rGFP-CAAX, HEK293T; propionate series up to 1 mM [2]: 0.588 ∆BRET^2

Compound: GαoB (from UniProt P09471-2 1-354) (natural protein)
- ebBRET (EMTA) max response, Rap1GAP-RlucII + rGFP-CAAX, HEK293T; propionate series after AZ1729 (1 µM, 5 min), vehicle and modulator-alone signals subtracted [1]: 1.62 ∆BRET^2
- ebBRET (EMTA) max response, Rap1GAP-RlucII + rGFP-CAAX, HEK293T; propionate series after Cmp58 (1 µM, 5 min), vehicle and modulator-alone signals subtracted [1]: 1.48 ∆BRET^2
- ebBRET (EMTA) max response, Rap1GAP-RlucII + rGFP-CAAX, HEK293T; propionate series up to 1 mM [2]: 1.81 ∆BRET^2
- ebBRET (EMTA) max response, Rap1GAP-RlucII + rGFP-CAAX, HEK293T; AZ1729 series, alone [3]: 0.994 ∆BRET^2
- ebBRET (EMTA) max response, Rap1GAP-RlucII + rGFP-CAAX, HEK293T; Cmp58 + AZ1729 series, no propionate [3]: 0.937 ∆BRET^2
- ebBRET (EMTA) max response, Rap1GAP-RlucII + rGFP-CAAX, HEK293T; Cmp58 series, alone [3]: 0.742 ∆BRET^2

Compound: CC(C)(C)[C@H](C(=O)Nc1ncc(-c2ccccc2)s1)c1ccc(Cl)cc1 [Cmp58, (S)-2-(4-chlorophenyl)-3,3-dimethyl-N-(5-phenylthiazol-2-yl)butanamide]
- EC50 (FFA2R (GPR43); read-out: Cmp58 / EC50): 2280 nM

Compound: GαoA (from UniProt P09471 1-354) (natural protein)
- ebBRET (EMTA) max response, Rap1GAP-RlucII + rGFP-CAAX, HEK293T; propionate series up to 1 mM [2]: 0.415 ∆BRET^2
- ebBRET (EMTA) max response, Rap1GAP-RlucII + rGFP-CAAX, HEK293T; AZ1729 series, alone [3]: 0.19 ∆BRET^2
- ebBRET (EMTA) max response, Rap1GAP-RlucII + rGFP-CAAX, HEK293T; Cmp58 series, alone [3]: 0.237 ∆BRET^2

Compound: Gαq (from UniProt P50148 1-359) (natural protein)
- ebBRET (EMTA) max response, p63RhoGEF-RlucII + rGFP-CAAX, HEK293T; propionate series after AZ1729 (1 µM, 5 min), vehicle and modulator-alone signals subtracted [1]: 1.04 ∆BRET^2
- ebBRET (EMTA) max response, p63RhoGEF-RlucII + rGFP-CAAX, HEK293T; propionate series after Cmp58 (1 µM, 5 min), vehicle and modulator-alone signals subtracted [1]: 1.01 ∆BRET^2
- ebBRET (EMTA) max response, p63RhoGEF-RlucII + rGFP-CAAX, HEK293T; propionate series up to 1 mM [2]: 1.55 ∆BRET^2
- ebBRET (EMTA) max response, p63RhoGEF-RlucII + rGFP-CAAX, HEK293T; AZ1729 series, alone [3]: 0.337 ∆BRET^2
- ebBRET (EMTA) max response, p63RhoGEF-RlucII + rGFP-CAAX, HEK293T; Cmp58 + AZ1729 series, no propionate [3]: 0.121 ∆BRET^2
- ebBRET (EMTA) max response, p63RhoGEF-RlucII + rGFP-CAAX, HEK293T; Cmp58 series, alone [3]: 0.132 ∆BRET^2

Compound: Gαz (from UniProt P19086 1-355) (natural protein)
- ebBRET (EMTA) max response, Rap1GAP-RlucII + rGFP-CAAX, HEK293T; propionate series up to 1 mM [2]: 0.757 ∆BRET^2

Compound: Gαi1 (from UniProt P63096 1-354) (natural protein)
- ebBRET (EMTA) max response, Rap1GAP-RlucII + rGFP-CAAX, HEK293T; propionate series after AZ1729 (1 µM, 5 min), vehicle and modulator-alone signals subtracted [1]: 0.817 ∆BRET^2
- ebBRET (EMTA) max response, Rap1GAP-RlucII + rGFP-CAAX, HEK293T; propionate series after Cmp58 (1 µM, 5 min), vehicle and modulator-alone signals subtracted [1]: 0.841 ∆BRET^2
- ebBRET (EMTA) max response, Rap1GAP-RlucII + rGFP-CAAX, HEK293T; propionate series up to 1 mM [2]: 0.755 ∆BRET^2
- ebBRET (EMTA) max response, Rap1GAP-RlucII + rGFP-CAAX, HEK293T; AZ1729 series, alone [3]: 0.584 ∆BRET^2
- ebBRET (EMTA) max response, Rap1GAP-RlucII + rGFP-CAAX, HEK293T; Cmp58 + AZ1729 series, no propionate [3]: 0.6 ∆BRET^2
- ebBRET (EMTA) max response, Rap1GAP-RlucII + rGFP-CAAX, HEK293T; Cmp58 series, alone [3]: 0.525 ∆BRET^2

Compound: Cc1nc(NC(=N)N)sc1-c1cccc(NC(=O)c2ccc(F)cc2)c1 [AZ1729]
- EC50 (FFA2R (GPR43); read-out: AZ1729 / EC50): 41 nM
